For one sequence, binding results are on record in paper PMC5014153.

Common to all, as to experiment: EMSA
What all share (settings): 25 mM Hepes pH 8.0, 40 mM KCl, 5 mM MgCl2, 1 mM DTT, 1 mM EDTA, 8% glycerol; 50 ng protein, 20 fmol probe; 30 min at 28 C; native PAGE
In general terms: In EMSA bound probe runs differently from free probe, usually more slowly.

The target in series [1] is 6xHis-WRKY18 (Arabidopsis thaliana (Col-0?)) (UniProt Q9C5T4).
Series [2] addresses T1, 6xHis-WRKY40 (Arabidopsis thaliana (Col-0?)) (UniProt Q9SAH7).
T1 sequence: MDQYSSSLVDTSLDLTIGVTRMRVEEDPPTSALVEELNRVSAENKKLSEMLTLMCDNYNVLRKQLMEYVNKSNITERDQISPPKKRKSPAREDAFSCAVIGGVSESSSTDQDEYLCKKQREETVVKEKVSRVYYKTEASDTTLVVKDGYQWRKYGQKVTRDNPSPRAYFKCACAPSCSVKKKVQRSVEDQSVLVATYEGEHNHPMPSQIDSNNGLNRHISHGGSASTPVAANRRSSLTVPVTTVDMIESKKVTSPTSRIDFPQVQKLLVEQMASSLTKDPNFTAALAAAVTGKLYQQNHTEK

Series [3] concerns the target 6xHis-WRKY60 (Arabidopsis thaliana (Col-0?)) (UniProt Q9SK33).

6xHis-WRKY60 (Arabidopsis thaliana (Col-0?)), sequence (Q9SK33 whole entry): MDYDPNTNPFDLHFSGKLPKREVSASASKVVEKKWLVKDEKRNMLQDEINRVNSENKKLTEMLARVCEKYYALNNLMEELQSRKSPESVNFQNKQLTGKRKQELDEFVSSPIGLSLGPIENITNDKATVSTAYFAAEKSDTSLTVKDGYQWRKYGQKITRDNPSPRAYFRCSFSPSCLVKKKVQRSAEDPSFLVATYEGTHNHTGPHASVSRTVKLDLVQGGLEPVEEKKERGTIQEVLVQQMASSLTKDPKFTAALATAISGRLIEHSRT
6xHis-WRKY18 (Arabidopsis thaliana (Col-0?)), sequence (Q9C5T4 whole entry): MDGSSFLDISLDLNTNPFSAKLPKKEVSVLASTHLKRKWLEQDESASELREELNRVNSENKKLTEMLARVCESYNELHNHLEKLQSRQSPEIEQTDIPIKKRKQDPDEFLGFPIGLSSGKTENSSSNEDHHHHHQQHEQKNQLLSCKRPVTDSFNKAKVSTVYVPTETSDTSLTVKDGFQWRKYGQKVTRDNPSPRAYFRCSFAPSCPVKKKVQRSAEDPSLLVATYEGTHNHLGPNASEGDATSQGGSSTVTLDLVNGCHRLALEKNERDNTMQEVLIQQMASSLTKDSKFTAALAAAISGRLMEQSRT

Consider “AGTTGTAAAGTTCAGAAGGAAAAGTACTAAAATATGAAGTCAACGACAATCTTTAGAGTCAACCTTCCACTAAGAGTGTTGATTGGTTTGATGAAGCAGTGAAGGCTAGAAACTGAAGCAACTAGGGTTTGGGAAGTTACTGTTTTAACTTGTAACTGTTCGTTTGTTACTTCTTTGGTAAGGAAGTAAAACGGTGTTGTCTTATTGACCCAAAGTCTCCGCGGCTTGCTGAATAATCACAAACCTATTAAATATCC (double strand) [ProCRK5-2]”, for which the figures for the binding entry in series [1], in series [2] and in series [3] were “binds”, “binds” and “no binding”, respectively.
